The target of assay [1] is AMMO1, human gH/gL-specific neutralizing antibody (recombinant IgG1) (human). In words: SPR.
The target of assay [2] is AMMO1 (human). In words: SPR.
Sequence of AMMO1 (human) (heavy, as listed by the source, chain 1 of 2): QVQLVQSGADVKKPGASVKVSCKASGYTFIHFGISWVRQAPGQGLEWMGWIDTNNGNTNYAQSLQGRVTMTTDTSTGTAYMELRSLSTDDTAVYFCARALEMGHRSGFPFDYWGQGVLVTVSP
Sequence of AMMO1 (human) (light, as listed by the source, chain 2 of 2): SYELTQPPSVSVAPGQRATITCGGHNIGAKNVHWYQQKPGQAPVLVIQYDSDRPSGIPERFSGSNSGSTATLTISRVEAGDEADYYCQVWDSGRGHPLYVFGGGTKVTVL

Sequence of AMMO1, human gH/gL-specific neutralizing antibody (recombinant IgG1) (human) (heavy, as listed by the source, chain 1 of 2): as the sequence (heavy, as listed by the source, chain 1 of 2) above
Sequence of AMMO1, human gH/gL-specific neutralizing antibody (recombinant IgG1) (human) (light, as listed by the source, chain 2 of 2): as the sequence (light, as listed by the source, chain 2 of 2) above

As to “EBV gH/gL single chain with N310A in gH (from UniProt P03231;P03212) (complex)”, in assay [1], the Kd was determined as 0.19 nM.

For the substance “gH N310A/gL (from UniProt P03231;P03212) (complex)”, the koff in assay [2] worked out at 9.6e-05 s⁻¹.

The record behind these values is PMC8595662.
